{"source": "patent US6565869", "about": "(ISTITUTO DI RICERCHE DI BIOLOGIA MOLECOLARE P ANGELETTI S P …, dated 2003)", "binders": {"B1": {"name": "hCNTF (human ciliary neurotrophic factor), wild type (ligand)", "chain": "MAFTEHSPLTPHRRDLCSRSIWLARKIRSDLTALTESYVKHQGLNKNINLDSADGMPVASTDQWSELTEAERLQENLQAYRTFHVLLARLLEDQQVHFTPTEGDFHQAIHTLLLQVAAFAYQIEELMILLEYKIPRNEADGMPINVGDGGLFEKKLWGLKVLQELSQWTVRSIHDLRFISSHQTGIPARGSHYIANNKKM", "notes": "also called human CNTF"}, "B2": {"name": "(Asp30Gln/Ser166Asp/Gln167His) hCNTF (ligand)", "chain": "B1 chain with D30Q, S166D, Q167H"}, "B3": {"name": "(Gln63Arg) hCNTF (ligand)", "chain": "B1 chain with Q63R"}, "B4": {"name": "(Gln63Arg/Ser166Asp/Gln167His) hCNTF (ligand)", "chain": "B1 chain with Q63R, S166D, Q167H"}, "B5": {"name": "(Gln163Ser/Gln167His) hCNTF (ligand)", "chain": "B1 chain with Q163S, Q167H"}, "B6": {"name": "(Gln167Ala) hCNTF (ligand)", "chain": "B1 chain with Q167A"}, "B7": {"name": "(Gln167Ala/Arg177Leu) hCNTF (ligand)", "chain": "B1 chain with Q167A, R177L"}, "B8": {"name": "(Gln167Ala/His174Ala) hCNTF (ligand)", "chain": "B1 chain with Q167A, H174A"}, "B9": {"name": "(Gln167Ala/Thr169Leu) hCNTF (ligand)", "chain": "B1 chain with Q167A, T169L"}, "B10": {"name": "(Gln167Ala/Thr169Leu/Phe178Ile) hCNTF (ligand)", "chain": "B1 chain with Q167A, T169L, F178I"}, "B11": {"name": "(Gln167Ala/Thr169Ser) hCNTF (ligand)", "chain": "B1 chain with Q167A, T169S"}, "B12": {"name": "(Gln167Thr) hCNTF (ligand)", "chain": "B1 chain with Q167T"}, "B13": {"name": "(Gln167Tyr) hCNTF (ligand)", "chain": "B1 chain with Q167Y"}, "B14": {"name": "(Lys155Ala/Ser166Asp/Gln167His) hCNTF (ligand)", "chain": "B1 chain with K155A, S166D, Q167H"}, "B15": {"name": "(Lys160Gln/Gln167Ala) hCNTF (ligand)", "chain": "B1 chain with K160Q, Q167A"}, "B16": {"name": "(Lys160Gln/Gln167Thr) hCNTF (ligand)", "chain": "B1 chain with K160Q, Q167T"}, "B17": {"name": "(Phe152Ala/Ser166Asp/Gln167His) hCNTF (ligand)", "chain": "B1 chain with F152A, S166D, Q167H"}, "B18": {"name": "(Ser166Ala/Gln167Ala) hCNTF (ligand)", "chain": "B1 chain with S166A, Q167A"}, "B19": {"name": "(Ser166Asn/Gln167Ala) hCNTF (ligand)", "chain": "B1 chain with S166N, Q167A"}, "B20": {"name": "(Ser166Asp/Gln167Ala) hCNTF (ligand)", "chain": "B1 chain with S166D, Q167A"}, "B21": {"name": "(Ser166Asp/Gln167Ala/Arg177Phe) hCNTF (ligand)", "chain": "B1 chain with S166D, Q167A, R177F"}, "B22": {"name": "(Ser166Asp/Gln167Ala/Thr169Leu) hCNTF (ligand)", "chain": "B1 chain with S166D, Q167A, T169L"}, "B23": {"name": "(Ser166Asp/Gln167His) hCNTF (ligand)", "chain": "B1 chain with S166D, Q167H", "notes": "also called DH-CNTF; DH-hCNTF"}, "B24": {"name": "(Ser166Gly/Gln167Ala) hCNTF (ligand)", "chain": "B1 chain with S166G, Q167A"}, "B25": {"name": "(Ser166His/Gln167Ala) hCNTF (ligand)", "chain": "B1 chain with S166H, Q167A"}, "B26": {"name": "(Thr169Ile/His174Ala) hCNTF (ligand)", "chain": "B1 chain with T169I, H174A", "notes": "also called (Thr169Ile/His174Ala) hCNTP"}, "B27": {"name": "(Val161Leu/Gln167Ala) hCNTF (ligand)", "chain": "B1 chain with V161L, Q167A"}, "B28": {"name": "(Val170Arg/His174Ala) hCNTF (ligand)", "chain": "B1 chain with V170R, H174A"}}, "note": "Substitutions are numbered along the chain they refer to."}
{"target": "T1, CNTF receptor-α (CNTFRα) (UniProt P26992 23-342, limits assumed)", "T1 construct": "also called CNTFRa; CNTF a-receptor", "T1 sequence (looked up)": "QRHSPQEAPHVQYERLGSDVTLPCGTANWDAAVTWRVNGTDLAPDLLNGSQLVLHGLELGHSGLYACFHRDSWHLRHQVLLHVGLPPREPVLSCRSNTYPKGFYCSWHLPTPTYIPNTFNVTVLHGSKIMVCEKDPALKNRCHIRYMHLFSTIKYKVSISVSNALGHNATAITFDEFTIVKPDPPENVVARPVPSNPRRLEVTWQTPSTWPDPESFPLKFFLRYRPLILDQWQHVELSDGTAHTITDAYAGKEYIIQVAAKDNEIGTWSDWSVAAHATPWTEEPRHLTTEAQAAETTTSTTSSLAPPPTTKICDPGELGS", "assay": "solid phase binding assay on CNTFRα", "method": "The relative binding affinities to CNTF receptor-α (CNTFRα) of hCNTF and different hCNTF variants were determined by solid phase binding assay as previously described (10). […] These variants, like DH-CNTF, have increased utility for treatment of obesity and associated diseases, such as diabetes."}
{"binder": "B1", "Relative Binding (hCNTF = 1)": "1.1 relative (hCNTF = 1)"}
{"binder": "B2", "Relative Binding (hCNTF = 1)": "30 relative (hCNTF = 1)"}
{"binder": "B3", "Relative Binding (hCNTF = 1)": "2 relative (hCNTF = 1)"}
{"binder": "B4", "Relative Binding (hCNTF = 1)": "66 relative (hCNTF = 1)"}
{"binder": "B5", "Relative Binding (hCNTF = 1)": "4.1 relative (hCNTF = 1)"}
{"binder": "B6", "Relative Binding (hCNTF = 1)": "9 relative (hCNTF = 1)"}
{"binder": "B7", "Relative Binding (hCNTF = 1)": "11.7 relative (hCNTF = 1)"}
{"binder": "B8", "Relative Binding (hCNTF = 1)": "3.6 relative (hCNTF = 1)"}
{"binder": "B9", "Relative Binding (hCNTF = 1)": "9.6 relative (hCNTF = 1)"}
{"binder": "B10", "Relative Binding (hCNTF = 1)": "8.4 relative (hCNTF = 1)"}
{"binder": "B11", "Relative Binding (hCNTF = 1)": "6.9 relative (hCNTF = 1)"}
{"binder": "B12", "Relative Binding (hCNTF = 1)": "11.8 relative (hCNTF = 1)"}
{"binder": "B13", "Relative Binding (hCNTF = 1)": "9.6 relative (hCNTF = 1)"}
{"binder": "B14", "Relative Binding (hCNTF = 1)": "51 relative (hCNTF = 1)"}
{"binder": "B15", "Relative Binding (hCNTF = 1)": "11.7 relative (hCNTF = 1)"}
{"binder": "B16", "Relative Binding (hCNTF = 1)": "3.1 relative (hCNTF = 1)"}
{"binder": "B17", "Relative Binding (hCNTF = 1)": "32 relative (hCNTF = 1)"}
{"binder": "B18", "Relative Binding (hCNTF = 1)": "8.1 relative (hCNTF = 1)"}
{"binder": "B19", "Relative Binding (hCNTF = 1)": "12.4 relative (hCNTF = 1)"}
{"binder": "B20", "Relative Binding (hCNTF = 1)": "13.5 relative (hCNTF = 1)"}
{"binder": "B21", "Relative Binding (hCNTF = 1)": "13.1 relative (hCNTF = 1)"}
{"binder": "B22", "Relative Binding (hCNTF = 1)": "21 relative (hCNTF = 1)"}
{"binder": "B23", "Relative Binding (hCNTF = 1)": "22.8 relative (hCNTF = 1)"}
{"binder": "B24", "Relative Binding (hCNTF = 1)": "7.5 relative (hCNTF = 1)"}
{"binder": "B25", "Relative Binding (hCNTF = 1)": "8.8 relative (hCNTF = 1)"}
{"binder": "B26", "Relative Binding (hCNTF = 1)": "0.07 relative (hCNTF = 1)"}
{"binder": "B27", "Relative Binding (hCNTF = 1)": "8.8 relative (hCNTF = 1)"}
{"binder": "B28", "Relative Binding (hCNTF = 1)": "3.3 relative (hCNTF = 1)"}
